Experimental findings from article PMC6166725 are described below.

The target of the assay is maltose-binding protein fragment MBP198–265 [MBP: P0AEX9]. Put plainly: ITC; iTC200, 22 °C; 350 μM MBP198–265 in the cell, 3.5 mM TF^PPD-SBD in the syringe; 20 mM potassium phosphate pH 7.0, 100 mM KCl, 0.05% NaN3.

What is called Kd is the concentration at which binding is half-saturated. Low readings indicate higher affinity, high ones lower affinity. Substance “trigger factor tandem domain TF^PPD-SBD (from UniProt P0A850 113-246) (domain or fragment)” showed a Kd of 47 µM and a dH of -5.9 kcal/mol.
